In US20130129763A1 (ARNE FORSGREN, published 2013):

Columns and labels:
[1] = target: T1, methylamine-treated C3 (C3met) (human, UniProt P01024 23-667; P01024 672-1663); assay: SPR (Biacore 2000), UspA protein amine-coupled on CM5 chip, C3met injected, steady state affinity model; UspA1^50-770 on the chip
T1 construct: mature; also called C3b-like molecule; [125I]-C3met

[2] = target: T2, Engelbreth-Holm-Swarm mouse sarcoma laminin (Sigma) (mouse, UniProt P19137 25-3083; P02469 22-1786; P02468 34-1607); assay: ELISA: 40 nM UspA1 50-770 coated, soluble laminin titrated in three-fold steps 0.03-60 µg/ml, rabbit anti-laminin pAb + HRP anti-rabbit pAb
T2 construct: also called soluble laminin

T1 sequence (P01024 23-667 limits assumed, chain 1 of 2): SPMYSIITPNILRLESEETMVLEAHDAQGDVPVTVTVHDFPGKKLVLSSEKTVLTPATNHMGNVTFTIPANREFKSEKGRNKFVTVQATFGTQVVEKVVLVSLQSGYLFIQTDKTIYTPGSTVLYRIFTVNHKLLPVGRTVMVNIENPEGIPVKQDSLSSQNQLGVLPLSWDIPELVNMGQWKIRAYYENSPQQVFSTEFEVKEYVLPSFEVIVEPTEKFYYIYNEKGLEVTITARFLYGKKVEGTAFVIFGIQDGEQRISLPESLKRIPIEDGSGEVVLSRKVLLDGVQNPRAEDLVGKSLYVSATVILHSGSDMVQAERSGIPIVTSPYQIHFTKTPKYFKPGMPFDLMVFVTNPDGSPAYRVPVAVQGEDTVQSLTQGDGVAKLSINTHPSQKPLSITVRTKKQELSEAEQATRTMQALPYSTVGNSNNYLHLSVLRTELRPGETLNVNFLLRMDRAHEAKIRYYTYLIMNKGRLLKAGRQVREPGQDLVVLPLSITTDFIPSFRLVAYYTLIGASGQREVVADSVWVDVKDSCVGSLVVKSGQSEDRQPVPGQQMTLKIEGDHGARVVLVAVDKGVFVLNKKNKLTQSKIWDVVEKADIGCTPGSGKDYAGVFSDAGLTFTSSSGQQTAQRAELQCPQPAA
T1 sequence (P01024 672-1663 limits assumed, chain 2 of 2): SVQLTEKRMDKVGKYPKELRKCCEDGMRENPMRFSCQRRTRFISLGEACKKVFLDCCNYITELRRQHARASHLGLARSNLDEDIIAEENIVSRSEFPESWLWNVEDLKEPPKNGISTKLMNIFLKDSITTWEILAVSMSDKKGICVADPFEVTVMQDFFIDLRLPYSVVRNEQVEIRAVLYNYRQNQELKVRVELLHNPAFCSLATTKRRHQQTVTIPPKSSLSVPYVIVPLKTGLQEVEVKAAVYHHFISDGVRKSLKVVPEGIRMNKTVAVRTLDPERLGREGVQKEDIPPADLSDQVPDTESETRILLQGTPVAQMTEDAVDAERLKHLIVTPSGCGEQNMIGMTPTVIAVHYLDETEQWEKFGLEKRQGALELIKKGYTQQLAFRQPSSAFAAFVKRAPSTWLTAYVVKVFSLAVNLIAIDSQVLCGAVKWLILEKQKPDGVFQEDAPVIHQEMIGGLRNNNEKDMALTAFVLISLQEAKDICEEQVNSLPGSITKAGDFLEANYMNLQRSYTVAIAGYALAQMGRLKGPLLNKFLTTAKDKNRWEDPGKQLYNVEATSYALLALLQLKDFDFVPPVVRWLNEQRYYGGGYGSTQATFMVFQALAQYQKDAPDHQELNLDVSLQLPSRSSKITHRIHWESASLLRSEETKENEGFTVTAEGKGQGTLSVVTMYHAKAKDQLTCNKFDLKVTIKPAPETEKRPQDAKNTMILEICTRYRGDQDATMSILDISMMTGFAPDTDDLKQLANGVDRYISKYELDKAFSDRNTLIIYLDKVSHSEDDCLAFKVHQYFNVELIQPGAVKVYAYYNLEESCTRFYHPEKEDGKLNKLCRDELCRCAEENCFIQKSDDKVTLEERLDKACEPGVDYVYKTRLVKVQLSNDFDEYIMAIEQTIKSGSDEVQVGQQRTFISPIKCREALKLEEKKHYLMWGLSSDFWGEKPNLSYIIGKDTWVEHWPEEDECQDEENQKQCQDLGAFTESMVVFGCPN

B1: recombinant UspA1^50-770 (M. catarrhalis Bc5) (other)
chain: KVGKATNKISGGDNNTANGTYLTIGGGDYNKTKGRYSTIGGGLFNEATNEYSTIGSGGYNKAKGRYSTIGGGGYNEATNQYSTIGGGDNNTAKGRYSTIGGGGYNEATIENSTVGGGGYNQAKGRNSTVAGGYNNEATGTDSTIAGGRKNQATGKGSFAAGIDNKANADNAVALGNKNTIEGENSVAIGSNNTVKKGQQNVFILGSNTDTTNAQNGSVLLGHNTAGKAATIVNSAEVGGLSLTGFAGASKTGNGTVSVGKKGKERQIVHVGAGEISDTSTDAVNGSQLHVLATVVAQNKADIKDLDDEVGLLGEEINSLEGEIFNNQDAIAKNQADIKTLESNVEEGLLDLSGRLLDQKADIDNNINNIYELAQQQDQHSSDIKTLKNNVEEGLLDLSGRLIDQKADLTKDIKALESNVEEGLLDLSGRLIDQKADIAKNQADIAQNQTDIQDLAAYNELQDAYAKQQTEAIDALNKASSANTDRIATAELGIAENKKDAQIAKAQANENKDGIAKNQADIQLHDKKITNLGILHSMVARAVGNNTQGVATNKADIAKNQADIANNIKNIYELAQQQDQHSSDIKTLAKVSAANTDRIAKNKAEADASFETLTKNQNTLIEQGEALVEQNKAINQELEGFAAHADVQDKQILQNQADITTNKTAIEQNINRTVANGFEIEKNKAGIATNKQELILQNDRLNRINETNNHQDQKIDQLGYAL
notes: also called UspA1^56-770 [sic]; UspA1^50-7"
[1]
  Kd: 14 µM
[2]
  binding result: binds
